In the supplement of paper PMC9732359:
± gives the uncertainty stated by the source.

Test: protein stability index of a GFP-peptide fusion (yeast GPS) (PSI 1-4); higher = more stable; sorted into four equal gates, so the index is relative within each strain
In short: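 Each library plasmid carries Cherry plus GFP with a tiled 17-residue yeast protein peptide fused downstream, and the pooled library was carried in yeast. Mid-log cultures in leucine-free medium were sorted into four equal gates by GFP/Cherry ratio. Reads from Illumina sequencing of PCR-amplified plasmids from each gate were assigned to strains by barcodes. Per peptide, the protein stability index was computed as the summed products of gate read frequency and gate number.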

Row | Sequence | protein stability index (doa10∆) | protein stability index (pdr5∆) | protein stability index (san1∆) | protein stability index (ubr1∆)
1 | PLPSHALTVQEVLNRVA [YDL116W/NUP84] | 2.29 ± 0.039 | 2.37 ± 0.042 | 2.37 ± 0.053 | 2.33 ± 0.027
2 | PLSRINENENFGYDIPL [YML103C/NUP188] | 3.02 ± 0.12 | 3.14 ± 0.095 | 3.15 ± 0.064 | 3.08 ± 0.077
3 | PLSTYNKNGNAVCSTAT [PGD1] | 2.37 ± 0.096 | 2.63 ± 0.075 | 2.37 ± 0.078 | 2.72 ± 0.088
4 | PLYARYINVNPQEETIT [ECM29] | 2.74 ± 0.07 | 2.85 ± 0.059 | 2.9 ± 0.067 | 2.69 ± 0.041
5 | PLYVMDEIDAALDFRNV [SMC4] | 2.5 ± 0.059 | 2.33 ± 0.066 | 3.26 ± 0.051 | 2.51 ± 0.048
6 | PMHSIMPNSSLQPFYSQ [DSN1] | 2.12 ± 0.072 | 2.65 ± 0.061 | 2.37 ± 0.083 | 2.49 ± 0.048
7 | PNFLGNCNIKDFKPPYI [SWP82] | 2.62 ± 0.048 | 2.64 ± 0.041 | 2.61 ± 0.054 | 2.65 ± 0.031
8 | PNIHQNLLPKKSAKATK [HTA1] | 2.53 ± 0.093 | 2.66 ± 0.082 | 2.69 ± 0.1 | 2.49 ± 0.061
9 | PNKVKTEDIRIRAQNFK [RRP6] | 2.75 ± 0.061 | 2.88 ± 0.082 | 2.56 ± 0.077 | 2.84 ± 0.039
10 | PNTRDAESEAITVTAKQ [SWI3] | 3.08 ± 0.075 | 3.23 ± 0.056 | 3.17 ± 0.063 | 3.15 ± 0.05
11 | PPQAGDRSLADDYDYVM [RPB8] | 3.23 ± 0.11 | 2.99 ± 0.11 | 3.33 ± 0.084 | 3 ± 0.09
12 | PPSLKIIDGPKALILAP [PRP28] | 1.62 ± 0.055 | 1.77 ± 0.07 | 1.51 ± 0.12 | 1.63 ± 0.039
13 | PQDDDSQSKMMSSQISS [MTR3] | 3.14 ± 0.074 | 3.17 ± 0.071 | 3.15 ± 0.043 | 3.27 ± 0.053
14 | PQEETITFLIEKAKEMI [ECM29] | 3.03 ± 0.092 | 3.18 ± 0.13 | 2.95 ± 0.069 | 3.16 ± 0.075
15 | PQFNSPYDSNNSNTNLN [SWI1] | 2.97 ± 0.054 | 3.03 ± 0.047 | 2.76 ± 0.052 | 2.9 ± 0.043
16 | PQLSKAGKFPTPVSHND [RPL1A] | 2.31 ± 0.04 | 2.87 ± 0.048 | 2.36 ± 0.048 | 2.62 ± 0.031
17 | PQMFLNQQAQARQQVAQ [GAL11] | 2.66 ± 0.15 | 2.46 ± 0.13 | 1.9 ± 0.27 | 1.7 ± 0.091
18 | PQTMEHYKQQIAVLIEL [YCS4] | 3.01 ± 0.083 | 3.05 ± 0.12 | 2.92 ± 0.11 | 2.52 ± 0.066
19 | PRETIPFLHLRKKTPAG [FAS2] | 2.73 ± 0.13 | 2.43 ± 0.1 | 2.63 ± 0.13 | 2.78 ± 0.094
20 | PRGLNSARKLRVHRRNN [RPS23A] | 2.39 ± 0.088 | 3.06 ± 0.079 | 2.96 ± 0.096 | 2.8 ± 0.073
21 | PRINNISAEDRADTDLA [SNF2] | 1.94 ± 0.15 | 2.51 ± 0.14 | 3.02 ± 0.084 | 2.86 ± 0.086
22 | PRQTKKAKAQAQAQAQA [PGD1] | 3.2 ± 0.077 | 3.46 ± 0.056 | 3.22 ± 0.036 | 3.06 ± 0.059
23 | PRSDDLEATWNFIEPGI [CDC53] | 3.04 ± 0.15 | 3.29 ± 0.13 | 3.15 ± 0.096 | 3.02 ± 0.11
24 | PRVSNQSNEDTFLPSYM [RRI2] | 3.07 ± 0.087 | 3.05 ± 0.09 | 3.14 ± 0.089 | 3.44 ± 0.067
25 | PSEFHCLQDALDAIDDF [SSN2] | 3.14 ± 0.1 | 3.16 ± 0.067 | 3.12 ± 0.05 | 3.09 ± 0.097
26 | PSIPLVIIRRLKTRDWI [POP1] | 2.72 ± 0.1 | 1.69 ± 0.073 | 2.86 ± 0.12 | 2.53 ± 0.081
